Assay results published in US20260242478A1 (published 2026).

Assays:
006 PSMA Fab [1] = biological target: T1, 006 PSMA Fab; assay: clonal phage ELISA on biotinylated PSMA Fab captured on neutravidin, wells pre-incubated with PSMA antigen as competitor, anti-M13 HRP detection
T1 construct: In the phage ELISA the Fab was biotinylated and captured on neutravidin coated plates; also called Anti-PSMA Fab
Procedure: (§1) Clonal phage were harvested as crude supernatants and screened via standard ELISAs. […] Prior to the addition of clonal phage. wells were incubated with blocking buffer and PSMA antigen or blocking buffer alone. Without washing or aspirating, clonal phage supernatants were then added to the wells and incubated for a short time. Wells were then washed followed by detection of bound phage using a horse radish conjugated anti-M13 antibody.

006 PSMA Fab [2] = biological target: T1, 006 PSMA Fab; assay: clonal phage ELISA on biotinylated PSMA Fab captured on neutravidin, anti-M13 HRP detection, no competitor
Procedure: as §1

PSMA Fab (006 PSMA Fab) [3] = biological target: T2, PSMA Fab (006 PSMA Fab) (Fab biotinylated for capture on neutravidin plates (site not stated)); assay: phage ELISA: clonal phage supernatant on biotinylated PSMA Fab captured on neutravidin plate, blocking buffer alone, anti-M13-HRP detection
T2 construct: also called Anti-PSMA Fab; anti-PSMA Fab

PSMA Fab (006 PSMA Fab) [4] = biological target: T2, PSMA Fab (006 PSMA Fab); assay: phage ELISA: clonal phage supernatant on biotinylated PSMA Fab captured on neutravidin plate, wells pre-incubated with PSMA antigen as competitor, anti-M13-HRP detection
Procedure: as §1

B1: Phage-3070 (peptide)
peptide: LEKACVPQWMCYGL
- Phage binding ELISA signal, Anti-PSMA Fab with PSMA antigen (006 PSMA Fab [1]): 0.0938
- Phage binding ELISA signal, Anti-PSMA Fab (006 PSMA Fab [2]): 2.13

B2: Phage-3080 (peptide-180 library clone) (peptide)
peptide: EWMKCVPLWMCEGI
- Phage binding ELISA signal, Anti-PSMA Fab (PSMA Fab (006 PSMA Fab) [3]): 2.11
- Phage binding ELISA signal, Anti-PSMA Fab in presence of PSMA (PSMA Fab (006 PSMA Fab) [4]): 0.0802

B3: Phage-3077 (peptide-180 library clone) (peptide)
peptide: VNHLCKPTWMCAGF
- Phage binding ELISA signal, Anti-PSMA Fab (PSMA Fab (006 PSMA Fab) [3]): 2.12
- Phage binding ELISA signal, Anti-PSMA Fab in presence of PSMA (PSMA Fab (006 PSMA Fab) [4]): 0.0765

B4: Phage-3081 (peptide-180 library clone) (peptide)
peptide: TDHLCVPSWMCLGF
- Phage binding ELISA signal, Anti-PSMA Fab (PSMA Fab (006 PSMA Fab) [3]): 2.11
- Phage binding ELISA signal, Anti-PSMA Fab in presence of PSMA (PSMA Fab (006 PSMA Fab) [4]): 0.0801

B5: Phage-3075 (peptide-180 library clone) (peptide)
peptide: YEQLCKPLWMCQGF
- Phage binding ELISA signal, Anti-PSMA Fab (PSMA Fab (006 PSMA Fab) [3]): 2.12
- Phage binding ELISA signal, Anti-PSMA Fab in presence of PSMA (PSMA Fab (006 PSMA Fab) [4]): 0.0628

B6: Phage-3069 (peptide)
peptide: ISPVCIPSWMCLGL
- Phage binding ELISA signal, Anti-PSMA Fab with PSMA antigen (006 PSMA Fab [1]): 0.174
- Phage binding ELISA signal, Anti-PSMA Fab (006 PSMA Fab [2]): 2.13

B7: Phage-3085 (peptide-180 library clone) (peptide)
peptide: LEHMCRPSWMCTGF
- Phage binding ELISA signal, Anti-PSMA Fab (PSMA Fab (006 PSMA Fab) [3]): 2.1
- Phage binding ELISA signal, Anti-PSMA Fab in presence of PSMA (PSMA Fab (006 PSMA Fab) [4]): 0.0798

B8: Phage-3086 (peptide-180 library clone) (peptide)
peptide: FWAQCVPPWMCSGF
- Phage binding ELISA signal, Anti-PSMA Fab (PSMA Fab (006 PSMA Fab) [3]): 2.1
- Phage binding ELISA signal, Anti-PSMA Fab in presence of PSMA (PSMA Fab (006 PSMA Fab) [4]): 0.199

B9: Phage-3078 (peptide-180 library clone) (peptide)
peptide: TYMMCVPEWMCQGF
- Phage binding ELISA signal, Anti-PSMA Fab (PSMA Fab (006 PSMA Fab) [3]): 2.11
- Phage binding ELISA signal, Anti-PSMA Fab in presence of PSMA (PSMA Fab (006 PSMA Fab) [4]): 0.101

B10: Phage-3083 (peptide-180 library clone) (peptide)
peptide: GQNLCIPSWMCEGF
- Phage binding ELISA signal, Anti-PSMA Fab (PSMA Fab (006 PSMA Fab) [3]): 2.11
- Phage binding ELISA signal, Anti-PSMA Fab in presence of PSMA (PSMA Fab (006 PSMA Fab) [4]): 0.08

B11: Phage-3072 (peptide)
peptide: IMMRCEPVWMCEGF
- Phage binding ELISA signal, Anti-PSMA Fab with PSMA antigen (006 PSMA Fab [1]): 0.118
- Phage binding ELISA signal, Anti-PSMA Fab (006 PSMA Fab [2]): 2.13

B12: Phage-3073 (peptide)
peptide: WLMRCEPQWMCAGF
- Phage binding ELISA signal, Anti-PSMA Fab with PSMA antigen (006 PSMA Fab [1]): 0.131
- Phage binding ELISA signal, Anti-PSMA Fab (006 PSMA Fab [2]): 2.12

B13: Phage-3076 (peptide-180 library clone) (peptide)
peptide: DEWICRPAWMCQGF
- Phage binding ELISA signal, Anti-PSMA Fab (PSMA Fab (006 PSMA Fab) [3]): 2.12
- Phage binding ELISA signal, Anti-PSMA Fab in presence of PSMA (PSMA Fab (006 PSMA Fab) [4]): 0.0632

B14: Phage-3084 (peptide-180 library clone) (peptide)
peptide: LDAMCRPLWMCSGF
- Phage binding ELISA signal, Anti-PSMA Fab (PSMA Fab (006 PSMA Fab) [3]): 2.11
- Phage binding ELISA signal, Anti-PSMA Fab in presence of PSMA (PSMA Fab (006 PSMA Fab) [4]): 0.0799

B15: Phage-3079 (peptide-180 library clone) (peptide)
peptide: HLMACKPAWMCLGL
- Phage binding ELISA signal, Anti-PSMA Fab (PSMA Fab (006 PSMA Fab) [3]): 2.11
- Phage binding ELISA signal, Anti-PSMA Fab in presence of PSMA (PSMA Fab (006 PSMA Fab) [4]): 0.135

B16: Phage-3074 (peptide-180 library clone) (peptide)
peptide: TASWCKPGGACKGF
- Phage binding ELISA signal, Anti-PSMA Fab (PSMA Fab (006 PSMA Fab) [3]): 2.12
- Phage binding ELISA signal, Anti-PSMA Fab in presence of PSMA (PSMA Fab (006 PSMA Fab) [4]): 0.0801

B17: Phage-3082 (peptide-180 library clone) (peptide)
peptide: DGPLCVPQWMCLWL
- Phage binding ELISA signal, Anti-PSMA Fab (PSMA Fab (006 PSMA Fab) [3]): 2.11
- Phage binding ELISA signal, Anti-PSMA Fab in presence of PSMA (PSMA Fab (006 PSMA Fab) [4]): 0.0699

B18: Phage-3071 (peptide)
peptide: SPYFCIPAWMCHGF
- Phage binding ELISA signal, Anti-PSMA Fab with PSMA antigen (006 PSMA Fab [1]): 0.121
- Phage binding ELISA signal, Anti-PSMA Fab (006 PSMA Fab [2]): 2.13
